Laboratory results taken from patent publication US20080125364A1, “Methods and Compositions for Treating Epithelial Cancers” (priority 2004, published 2008).

How the values were obtained:
Pa4-Raf1 cells [1] = test: Oligonucleotide microarray comparison of mRNA abundance; format: cell-based, rat; details: for correction of Raf1-driven gene expression changes (mRNA abundance): forced expression in Pa4-Raf1 cells
Source text: Based upon internal quality control data, differential expression values greater than 1.5 obtained with Agilent Oligonucleotide microarrays are likely to be significant. Using this benchmark, we compared microarray data for entire rat genome obtained from Pa-4 cells before and after stable transfection with constitutively active Raf1 (Pa4-Raf1). […] Genes affected by active Raf1 in Pa4 cells included transcription factors, response elements, regulatory molecules, growth factor receptors, cell-cell contact proteins, and cytoskeletal elements that were consistent with those identified in other studies examining epithelial cell gene modulation associated with Ras/Raf/MAP kinase pathway activation. The strongest mRNA abundance profile shifts occurred in genes associated with cell polarity, proliferation and sensitivity to apoptotic stimuli. Numerous genes identified by the present studies have been previously reported as being targets of cell regulation in other cancer cell microarray studies.

Pa4-Raf1 cells [2] = test: Phase contrast and immunofluorescence microscopy of cell morphology and junctional proteins; format: cell-based, rat; details: Pa4-Raf1 cells expressing the construct, grown on plastic
Procedure: Cells grown on glass coverslips or on polycarbonate filters (NK, Costar, Cambridge, Mass., US) with a pore size of 0.4 μm were rinsed with HBSS containing calcium and magnesium (HBSS^+). Cells were fixed and permeabilized in absolute methanol for 20 min at −20° C., followed by blocking in HBSS^+ containing 5% normal goat serum (blocking buffer) for 1 h at room temperature and incubation for 60 min with primary antibodies to human occludin, claudin-1, and ZO-1, (Zymed Laboratories, San Francisco, Calif.), E-cadherin (BD Biosciences) in blocking buffer. Cells were then washed, incubated for 60 min with Alexa dye-conjugated secondary antibodies (Molecular Probes, Eugene, Oreg.), followed by rinsing and mounting on slides with PROLONG ANTIFADE medium (Molecular Probes). For double labeling of junctional proteins, cells were fixed and permeabilized in absolute methanol and blocked in blocking buffer. Cells were sequentially stained with two primary antibodies. Donkey anti-goat and anti-rabbit antibodies conjugated to fluorescent red or green Alexa dyes (Molecular Probes) were used for detection of the respective primary antibodies. Stained cells were scanned using a Zeiss LSM510 laser scanning confocal microscope (Zeiss Microimaging Inc., Thornwood, N.Y.) coupled to a Zeiss 100M axiovert and 40× or 63× Pan-Apochromat oil lenses. […]

Pa4-Raf1 cells [3] = test: Transepithelial electrical resistance (TER) of monolayers on filter supports; format: cell-based, rat; details: Pa4-Raf1 cells expressing the construct, after 5 days of culture on semi-permeable filter supports
Procedure: (§1) For transepithelial electrical resistance (TER) measurements, cells were plated on polycarbonate filters with a pore size of 0.4 μm. A Millicell-ERS volt-ohm meter (Millipore) was used to determine the TER value. All TER values were normalized for the area of the filter and were obtained by subtracting the contribution of the filter and bathing solution. Paracellular permeability to fluoresceinated dextran (FD-3; MW 3000) was assessed according to previously published methods (Sanders et al., 1995). Briefly, cells were grown on polycarbonate filters with a pore size of 0.4 μm. TER was measured and then cells were washed in Hanks balanced salt solution/10 mM HEPES (HBSS^+) and equilibrated at 37° C. for 10 min on an orbital shaker. Cells were loaded apically with 1 mg/ml FD-3 (Molecular Probes) at time=0. Basolateral samples were taken at t=0, 30, 60, 90 and 120 minutes, and fluorescence intensity was analyzed on a CytoFluor 2350 Fluorescence Measurement System (Millipore, Cambridge, Mass.). FD-3 concentrations transported were extrapolated from a standard curve (generated by diluting known concentrations of fluorescent tracer) and expressed as ng FD-3 transported/cm^2/hour. Numerical values from individual experiments were pooled and expressed as mean ±standard error of the mean. Data shown are representative of at least three experiments.

Pa4-Raf1 cells [4] = test: Paracellular permeability to FD-3 (3 kDa FITC-dextran); format: cell-based, rat; details: Pa4-Raf1 cells expressing the construct
Procedure: as §1

Pa4-Raf1 cells [5] = test: Cloning efficiency (anchorage-independent growth) in soft agarose; format: cell-based, rat; details: Pa4-Raf1 cells expressing the construct, 4 weeks, colonies >0.4 mm counted
Procedure: Pa4 cells, Pa4-Raf1 cells and Pa4-Raf1 cells expressing full-length occludin or various occludin mutants were seeded a density of 1×10^4 cells per 35-mm culture dish in 1 ml of 0.35% (wt/vol) low melting point agarose solution diluted with complete medium. Dishes were coated with 1 ml of 0.7% (wt/vol) low melting point agarose before cell plating, and 1 ml of overlay medium was added after cell plating. The dishes were incubated at 35° C. in 5% CC>2 and 95% air for 4 weeks. The overlay medium was changed every 3 days. After 4 weeks, the cells were stained with 3-[4,5-dimethylthiazol-2-yl]-2,5-diphenyltetrazolium bromide (MTT; 0.05 mg/ml). The stained dishes were photographed, and colonies >0.4 mm in diameter were counted and analyzed.

Pa4-Raf1 cells [6] = test: Tumorigenicity in nude mice; format: in vivo; details: Pa4-Raf1 cells expressing the construct, injected subcutaneously, 6 weeks post injection
Procedure: The nude mice were used to assay tumorigenicity in vivo. Pa4 cells, Pa4-Raf1 cells and Pa4-Raf1 cells expressing fall-length occludin or various occludin mutants were grown to logarithmic growth phase, harvested, washed, and resuspended in PBS for injection. Each of the cell lines (1×10^6 cells in 200 μl PBS) was injected subcutaneously into the flanks of four male nude mice. Tumor formation was monitored daily. All nude mice were sacrificed at six weeks, with tumors being isolated and analyzed.

B1: claudin-1: tight junction protein claudin-1 force-expressed in Pa4-Raf1 cells (protein, UniProt O95832 1-211, looked up)
Claudin-1: MANAGLQLLGFILAFLGWIGAIVSTALPQWRIYSYAGDNIVTAQAMYEGLWMSCVSQSTGQIQCKVFDSLLNLSSTLQATRALMVVGILLGVIAIFVATVGMKCMKCLEDDEVQKMRMAVIGGAIFLLAGLAILVATAWYGNRIVQEFYDPMTPVNARYEFGQALFTGWAAASLCLLGGALLCCSCPRKTTSYPTPRPYPKPAPSSGKDYV
- correction of Raf1-driven gene expression changes (mRNA abundance) (Pa4-Raf1 cells [1]): fails to affect correction of gene modifications

B2: Occ: full-length human occludin with C-terminal myc-tag, stably expressed in Raf1-transformed Pa4 cells (protein, UniProt Q16625 1-522, looked up)
chain: MSSRPLESPPPYRPDEFKPNHYAPSNDIYGGEMHVRPMLSQPAYSFYPEDEILHFYKWTSPPGVIRILSMLIIVMCIAIFACVASTLAWDRGYGTSLLGGSVGYPYGGSGFGSYGSGYGYGYGYGYGYGGYTDPRAAKGFMLAMAAFCFIAALVIFVTSVIRSEMSRTRRYYLSVIIVSAILGIMVFIATIVYIMGVNPTAQSSGSLYGSQIYALCNQFYTPAATGLYVDQYLYHYCVVDPQEAIAIVLGFMIIVAFALIIFFAVKTRRKMDRYDKSNILWDKEHIYDEQPPNVEEWVKNVSAGTQDVPSPPSDYVERVDSPMAYSSNGKVNDKRFYPESSYKSTPVPEVVQELPLTSPVDDFRQPRYSSGGNFETPSKRAPAKGRAGRSKRTEQDHYETDYTTGGESCDELEEDWIREYPPITSDQQRQLYKRNFDTGLQEYKSLQSELDEINKELSRLDKELDDYREESEEYMAAADEYNRLKQVKGSADYKSKKNHCKQLKSKLSHIKKMVGDYDRQKT
modifications: full-length C-terminal myc-tag
notes: full-length human occludin with C-terminal myc-tag, stably expressed in Raf1-transformed Pa4 cells
- rescue of epithelial cell morphology (Pa4-Raf1 cells [2]): recovered epithelial morphology
- rescue of epithelial cell morphology (Pa4-Raf1 cells [2]; listed as full-length occludin): tightly clustered colonies
- growth factor binding protein mRNA up-regulation (Pa4-Raf1 cells [1]; Pa4 Raf1 cells, forced occludin expression): 35 fold
- aquaporin-1 mRNA levels (Pa4-Raf1 cells [1]; Raf1-induced nearly 4-fold increase): corrected
- correction of Raf1-driven gene expression changes (mRNA abundance) (Pa4-Raf1 cells [1]): remarkable reversal of essentially all of the genomic changes
- correction of Raf1 gene modifications of Table 1 (Pa4-Raf1 cells [1]; genes of Table 1): corrected
- REX-3 mRNA abundance (Pa4-Raf1 cells [1]; up-regulated 37-fold by Raf1): down-regulated by occludin to an equivalent extent
- transepithelial electrical resistance (TER) (Pa4-Raf1 cells [3]): > 900 O-cm^2
- FD-3 flux rate (Pa4-Raf1 cells [4]): −1,500 ng/cm^2/hr
- average number of colonies on soft agarose (Pa4-Raf1 cells [5]): 5 colonies
- tumor formation (Pa4-Raf1 cells [6]): failed to produce tumors
